The text below walks through data of patent EP2210617A1.

Assay [1] has as its target GFRα2/Fc fusion protein (R&D Systems) (human). In words: GFRα2 ELISA (GFRα2/Fc on anti-Fc plate, Ret-AP detection) on conditioned medium of transfected CHO cells; reference is medium of wt NTN transfected cells. (ELISA stands for enzyme-linked immunosorbent assay.)
The target is the same in assay [2]. In words: GFRα2 ELISA (GFRα2/Fc on anti-Fc plate, Ret-AP detection) on conditioned medium of transfected HiB5 cells; reference is medium of wt NTN transfected cells.
Assay [3] shares this target. In words: GFRα2 ELISA (GFRα2/Fc on anti-Fc plate, Ret-AP detection) on conditioned medium of transfected HEK293 cells; reference is medium of wt NTN transfected cells.
Assay [4] has the same target. The assay is described as follows: GFRα2 ELISA (GFRα2/Fc on anti-Fc plate, Ret-AP detection) on conditioned medium of transfected ARPE-19 cells; reference is medium of wt NTN transfected cells.

B1: mature human Neurturin secreted from cells transfected with the dpro-NTN construct (deltapro102NTN) (ligand)
chain: ARLGARPCGLRELEVRVSELGLGYASDETVLFRYCAGACEAAARVYDLGLRRLRQRRRLRRERVRAQPCCRPTAYEDEVSFLDAHSRYHTVHELSARECACV
Take B1: the fold higher NTN binding (relative GFRα2 binding activity, wt construct set to 1) was determined as 4.1 fold in assay [1], 7.5 fold in assay [2], 90 fold in assay [3] and 117 fold in assay [4].

B2: mature human Neurturin secreted from cells transfected with the IgSP-NTN construct (IgSP-102NTN) (ligand)
chain: B1 chain
B2: the fold higher NTN binding (relative GFRα2 binding activity, wt construct set to 1) in assay [1] was 66 fold; in assay [2], 162 fold; in assay [3], 278 fold; in assay [4], 771 fold.
